Our source for the Experimental % binding values is PMC11446282.

Numbering of substitutions follows the chain as printed.

The test system of the assay is PP2A-B55α. Nature of the assay: Single alanine mutational scan, YFP-tagged interactors immunoprecipitated from HeLa cells, Western blot. The class given is binding, human. Here is the method: Standard cloning techniques were used throughout. Point mutations were introduced by whole plasmid polymerase chain reaction (PCR). All constructs were fully sequenced. Synthetic DNA was purchased from GeneArt, Life Technologies and cloned into pcDNA5/FRT/TO (Invitrogen) expression vector containing YFP, resulting in the indicated YFP fusion proteins. These constructs were transiently transfected into HeLa cells 24 hours before harvesting cells. Cells were lysed in lysis buffer [50 mM tris-HCl (pH 7.5), 50 mM NaCl, 1 mM EDTA, 1 mM […], and 0.1% NP-40]. Complexes were immunoprecipitated at 4°C in lysis buffer with green fluorescent protein (GFP)–Trap (ChromoTek) and washed in lysis buffer. Precipitated protein complexes were washed three times in lysis buffer, eluted in 2× SDS sample buffer, and subjected to Western blotting or MS as indicated.
On the technique in general: In western blotting, separated proteins are transferred to a membrane and probed.

Setting [1] is: single alanine mutant of YFP-tagged IER2.
Where [2] appears, read: single alanine mutant of YFP-tagged RBM7.
[3] abbreviates: single alanine mutant of YFP-tagged CDCA4.

B1: IER2 R9: IER2, R9 to alanine (protein, UniProt Q9BTL4 1-223, looked up, variant R9A)
Immediate early response gene …: MEVQKEAQAIMTLSVWKMYHSRMQRGGLRLHRSLQLSLVMRSARELYLSAKVEALEPEVSLPAALPSDPRLHPPREAESTAETATPDGEHPFPEPMDTQEAPTAEETSACCAPRPAKVSRKRRSSSLSDGGDAGLVPSKKARLEEKEEEEGASSEVADRLQPPPAQAEGAFPNLARVLQRRFSGLLNCSPAAPPTAPPACEAKPACRPADSMLNVLVRAVVAF
On to B1, for which, under setting [1], the Experimental % binding is reported as 78%.

B2: IER2 M11: IER2, M11 to alanine (protein, UniProt Q9BTL4 1-223, looked up, variant M11A)
Immediate early response gene …: B1 Immediate early response gene … with A9R, M11A
As to B2, the Experimental % binding under setting [1] came to 81%.

B3: IER2 T12: IER2, T12 to alanine (protein, UniProt Q9BTL4 1-223, looked up, variant T12A)
Immediate early response gene …: B1 Immediate early response gene … with A9R, T12A
On to B3, for which, under setting [1], the Experimental % binding was 94%.

B4: IER2 L13: IER2, L13 to alanine (protein, UniProt Q9BTL4 1-223, looked up, variant L13A)
Immediate early response gene …: B1 Immediate early response gene … with A9R, L13A
Consider B4, for which the Experimental % binding under setting [1] is 80%.

B5: IER2 I10: IER2, I10 to alanine (protein, UniProt Q9BTL4 1-223, looked up, variant I10A)
Immediate early response gene …: B1 Immediate early response gene … with A9R, I10A
Under setting [1], B5 yielded an Experimental % binding of 81%.

B6: RBM7 M147: RBM7, M147 to alanine (protein, UniProt Q9Y580 2-266, looked up, variant M147A)
RNA-binding protein 7: GAAAAEADRTLFVGNLETKVTEELLFELFHQAGPVIKVKIPKDKDGKPKQFAFVNFKHEVSVPYAMNLLNGIKLYGRPIKIQFRSGSSHAPQDVSLSYPQHHVGNSSPTSTSPSRYERTMDNMTSSAQIIQRSFSSPENFQRQAVANSALRQMSYGGKFGSSPLDQSGFSPSVQSHSHSFNQSSSSQWRQGTPSSQRKVRMNSYPYLADRHYSREQRYTDHGSDHHYRGKRDDFFYEDRNHDDWSHDYDNRRDSSRDGKWRSSRH
In the case of B6, under setting [2], the Experimental % binding is listed as 9%.

B7: RBM7 N148: RBM7, N148 to alanine (protein, UniProt Q9Y580 2-266, looked up, variant N148A)
RNA-binding protein 7: B6 RNA-binding protein 7 with A146M, N147A
B7: the Experimental % binding under setting [2] is 29%.

B8: RBM7 Q142: RBM7, Q142 to alanine (protein, UniProt Q9Y580 2-266, looked up, variant Q142A)
RNA-binding protein 7: B6 RNA-binding protein 7 with Q141A, A146M
On to B8, for which, under setting [2], the Experimental % binding is on record as 67%.

B9: RBM7 S149: RBM7, S149 to alanine (protein, UniProt Q9Y580 2-266, looked up, variant S149A)
RNA-binding protein 7: B6 RNA-binding protein 7 with A146M, S148A
B9: under setting [2], the Experimental % binding was 109%.

B10: RBM7 Q153: RBM7, Q153 to alanine (protein, UniProt Q9Y580 2-266, looked up, variant Q153A)
RNA-binding protein 7: B6 RNA-binding protein 7 with A146M, Q152A
B10: the Experimental % binding under setting [2] is given as 131%.

B11: RBM7 R143: RBM7, R143 to alanine (protein, UniProt Q9Y580 2-266, looked up, variant R143A)
RNA-binding protein 7: B6 RNA-binding protein 7 with R142A, A146M
As to B11, the Experimental % binding under setting [2] was found to be 5%.

B12: RBM7 R152: RBM7, R152 to alanine (protein, UniProt Q9Y580 2-266, looked up, variant R152A)
RNA-binding protein 7: B6 RNA-binding protein 7 with A146M, R151A
Take B12: the Experimental % binding under setting [2] was determined as 62%.

B13: RBM7 F141: RBM7, F141 to alanine (protein, UniProt Q9Y580 2-266, looked up, variant F141A)
RNA-binding protein 7: B6 RNA-binding protein 7 with F140A, A146M
As to B13, the Experimental % binding under setting [2] was found to be 4%.

B14: RBM7 P138: RBM7, P138 to alanine (protein, UniProt Q9Y580 2-266, looked up, variant P138A)
RNA-binding protein 7: B6 RNA-binding protein 7 with P137A, A146M
With B14, the Experimental % binding under setting [2] is recorded as 92%.

B15: RBM7 L151: RBM7, L151 to alanine (protein, UniProt Q9Y580 2-266, looked up, variant L151A)
RNA-binding protein 7: B6 RNA-binding protein 7 with A146M, L150A
With B15, the Experimental % binding under setting [2] amounted to 47%.

B16: RBM7 V146: RBM7, V146 to alanine (protein, UniProt Q9Y580 2-266, looked up, variant V146A)
RNA-binding protein 7: B6 RNA-binding protein 7 with V145A, A146M
As to B16, under setting [2], the Experimental % binding came out at 7%.

B17: RBM7 E139: RBM7, E139 to alanine (protein, UniProt Q9Y580 2-266, looked up, variant E139A)
RNA-binding protein 7: B6 RNA-binding protein 7 with E138A, A146M
As to B17, the Experimental % binding under setting [2] is recorded as 77%.

B18: RBM7 N140: RBM7, N140 to alanine (protein, UniProt Q9Y580 2-266, looked up, variant N140A)
RNA-binding protein 7: B6 RNA-binding protein 7 with N139A, A146M
B18 had an Experimental % binding under setting [2] of 5%.

B19: CDCA4 K44: CDCA4, K44 to alanine (protein, UniProt Q9BXL8 1-241, looked up, variant K44A)
Cell division …: MFARGLKRKCVGHEEDVEGALAGLKTVSSYSLQRQSLLDMSLVALQLCHMLVEPNLCRSVLIANTVRQIQEEMTQDGTWRTVAPQAAERAPLDRLVSTEILCRAAWGQEGAHPAPGLGDGHTQGPVSDLCPVTSAQAPRHLQSSAWEMDGPRENRGSFHKSLDQIFETLETKNPSCMEELFSDVDSPYYDLDTVLTGMMGGARPGPCEGLEGLAPATPGPSSSCKSDLGELDHVVEILVET
As to B19, the Experimental % binding under setting [3] is given as 22%.

B20: CDCA4 I62: CDCA4, I62 to alanine (protein, UniProt Q9BXL8 1-241, looked up, variant I62A)
Cell division …: B19 Cell division … with A44K, I62A
B20: the Experimental % binding under setting [3] was found to be 7%.

B21: CDCA4 R58: CDCA4, R58 to alanine (protein, UniProt Q9BXL8 1-241, looked up, variant R58A)
Cell division …: B19 Cell division … with A44K, R58A
As for B21, the Experimental % binding under setting [3] is 37%.

B22: CDCA4 L45: CDCA4, L45 to alanine (protein, UniProt Q9BXL8 1-241, looked up, variant L45A)
Cell division …: B19 Cell division … with A44K, L45A
Turning to B22, the Experimental % binding under setting [3] is recorded as 86%.

B23: CDCA4 E53: CDCA4, E53 to alanine (protein, UniProt Q9BXL8 1-241, looked up, variant E53A)
Cell division …: B19 Cell division … with A44K, E53A
Under setting [3], B23 showed an Experimental % binding of 153%.

B24: CDCA4 L42: CDCA4, L42 to alanine (protein, UniProt Q9BXL8 1-241, looked up, variant L42A)
Cell division …: B19 Cell division … with L42A, A44K
Regarding B24, the Experimental % binding under setting [3] is reported as 129%.

B25: CDCA4 V60: CDCA4, V60 to alanine (protein, UniProt Q9BXL8 1-241, looked up, variant V60A)
Cell division …: B19 Cell division … with A44K, V60A
The molecule B25 came in with an Experimental % binding under setting [3] of 47%.

B26: CDCA4 V66: CDCA4, V66 to alanine (protein, UniProt Q9BXL8 1-241, looked up, variant V66A)
Cell division …: B19 Cell division … with A44K, V66A
With B26, the Experimental % binding under setting [3] turned out to be 38%.

B27: CDCA4 S59: CDCA4, S59 to alanine (protein, UniProt Q9BXL8 1-241, looked up, variant S59A)
Cell division …: B19 Cell division … with A44K, S59A
The molecule B27 had an Experimental % binding under setting [3] of 64%.

B28: CDCA4 L61: CDCA4, L61 to alanine (protein, UniProt Q9BXL8 1-241, looked up, variant L61A)
Cell division …: B19 Cell division … with A44K, L61A
Turning to B28, the Experimental % binding under setting [3] was 28%.

B29: CDCA4 V43: CDCA4, V43 to alanine (protein, UniProt Q9BXL8 1-241, looked up, variant V43A)
Cell division …: B19 Cell division … with V43A, A44K
Consider B29, for which the Experimental % binding under setting [3] worked out at 81%.

B30: CDCA4 C57: CDCA4, C57 to alanine (protein, UniProt Q9BXL8 1-241, looked up, variant C57A)
Cell division …: B19 Cell division … with A44K, C57A
B30 returned an Experimental % binding under setting [3] of 91%.

B31: CDCA4 L56: CDCA4, L56 to alanine (protein, UniProt Q9BXL8 1-241, looked up, variant L56A)
Cell division …: B19 Cell division … with A44K, L56A
The molecule B31 had an Experimental % binding under setting [3] of 42%.

B32: CDCA4 T65: CDCA4, T65 to alanine (protein, UniProt Q9BXL8 1-241, looked up, variant T65A)
Cell division …: B19 Cell division … with A44K, T65A
On to B32, for which the Experimental % binding under setting [3] is 28%.

B33: CDCA4 V52: CDCA4, V52 to alanine (protein, UniProt Q9BXL8 1-241, looked up, variant V52A)
Cell division …: B19 Cell division … with A44K, V52A
B33 registered an Experimental % binding under setting [3] of 82%.

B34: CDCA4 Q46: CDCA4, Q46 to alanine (protein, UniProt Q9BXL8 1-241, looked up, variant Q46A)
Cell division …: B19 Cell division … with A44K, Q46A
Regarding B34, under setting [3], the Experimental % binding amounted to 61%.

B35: CDCA4 N55: CDCA4, N55 to alanine (protein, UniProt Q9BXL8 1-241, looked up, variant N55A)
Cell division …: B19 Cell division … with A44K, N55A
As to B35, the Experimental % binding under setting [3] was found to be 99%.

B36: CDCA4 P54: CDCA4, P54 to alanine (protein, UniProt Q9BXL8 1-241, looked up, variant P54A)
Cell division …: B19 Cell division … with A44K, P54A
As for B36, under setting [3], the Experimental % binding worked out at 66%.

B37: CDCA4 N64: CDCA4, N64 to alanine (protein, UniProt Q9BXL8 1-241, looked up, variant N64A)
Cell division …: B19 Cell division … with A44K, N64A
In turn, B37 yielded an Experimental % binding under setting [3] of 57%.
